Reference: the supplement of paper PMC9112550, “Optimization of the antimicrobial peptide Bac7 by deep mutational scanning” (BMC Biology, 2022)

System: Escherichia coli TOP10
Assay: shrunken log2 fold change of peptide-encoding DNA abundance (4.5 h post-induction vs induction); higher = less antimicrobial activity (less host growth inhibition)
Settings: time post-induction: 4.5 h; library: site-saturation at positions 5, 18, 19, 20
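Further: peptides expressed intracellularly from a pBAD plasmid library in pooled LB shake-flask culture, induced with 0.3% L-arabinose, DNA abundance read by NGS, three biological replicates, DESeq2 with apeglm shrinkage.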

Row | Sequence | shrunken log2 fold change
1 | RRIRPRPPRLPRPRPRPLNLPRP | 0.177
2 | RRIRPRPPRLPRPRPRPLQFPRP | -0.178
3 | RRIRPRPPRLPRPRPRPLTGPRP | 0.019
4 | RRIRPRPPRLPRPRPRPLVDPRP | 0.111
5 | RRIRPRPPRLPRPRPRPLVQPRP | -0.0898
6 | RRIRPRPPRLPRPRPRPMCHPRP | -0.22
7 | RRIRPRPPRLPRPRPRPMCSPRP | -0.152
8 | RRIRPRPPRLPRPRPRPMCTPRP | 0.108
9 | RRIRPRPPRLPRPRPRPMDGPRP | 0.214
10 | RRIRPRPPRLPRPRPRPMDHPRP | 0.0131
11 | RRIRPRPPRLPRPRPRPMEIPRP | -0.00192
12 | RRIRPRPPRLPRPRPRPMFGPRP | -0.253
13 | RRIRPRPPRLPRPRPRPMFIPRP | -0.439
14 | RRIRPRPPRLPRPRPRPMGGPRP | 0.113
15 | RRIRPRPPRLPRPRPRPMGTPRP | 0.0218
16 | RRIRPRPPRLPRPRPRPMHGPRP | 0.0373
17 | RRIRPRPPRLPRPRPRPMHLPRP | -0.034
18 | RRIRPRPPRLPRPRPRPMHTPRP | -0.0538
19 | RRIRPRPPRLPRPRPRPMIMPRP | -0.0291
20 | RRIRPRPPRLPRPRPRPMIVPRP | -1.14
21 | RRIRPRPPRLPRPRPRPMMCPRP | -0.147
22 | RRIRPRPPRLPRPRPRPMMWPRP | 0.0433
23 | RRIRPRPPRLPRPRPRPMNWPRP | -0.0482
24 | RRIRPRPPRLPRPRPRPMPQPRP | -0.0158
25 | RRIRPRPPRLPRPRPRPMPYPRP | -0.41

Row | Sequence | shrunken log2 fold change
26 | RRIRPRPPRLPRPRPRPMRFPRP | 0.0813
27 | RRIRPRPPRLPRPRPRPMRHPRP | -0.0129
28 | RRIRPRPPRLPRPRPRPMSKPRP | -0.276
29 | RRIRPRPPRLPRPRPRPMSNPRP | -0.127
30 | RRIRPRPPRLPRPRPRPMTDPRP | 0.0653
31 | RRIRPRPPRLPRPRPRPMTMPRP | -0.469
32 | RRIRPRPPRLPRPRPRPMTTPRP | -0.104
33 | RRIRPRPPRLPRPRPRPMTYPRP | -0.437
34 | RRIRPRPPRLPRPRPRPMVDPRP | -0.019
35 | RRIRPRPPRLPRPRPRPMVEPRP | -0.112
36 | RRIRPRPPRLPRPRPRPMWQPRP | 0.0423
37 | RRIRPRPPRLPRPRPRPMYWPRP | -0.0489
38 | RRIRPRPPRLPRPRPRPNCPPRP | -0.0126
39 | RRIRPRPPRLPRPRPRPNDEPRP | 0.0306
40 | RRIRPRPPRLPRPRPRPNFYPRP | 0.356
41 | RRIRPRPPRLPRPRPRPNHAPRP | -0.162
42 | RRIRPRPPRLPRPRPRPNHRPRP | -0.11
43 | RRIRPRPPRLPRPRPRPNKAPRP | 0.0279
44 | RRIRPRPPRLPRPRPRPNKMPRP | -0.17
45 | RRIRPRPPRLPRPRPRPNLIPRP | -0.203
46 | RRIRPRPPRLPRPRPRPNLNPRP | -0.369
47 | RRIRPRPPRLPRPRPRPNMWPRP | -0.084
48 | RRIRPRPPRLPRPRPRPNPDPRP | 0.0105
49 | RRIRPRPPRLPRPRPRPNPTPRP | 0.0721
50 | RRIRPRPPRLPRPRPRPNPVPRP | -0.0737

Row | Sequence | shrunken log2 fold change
51 | RRIRPRPPRLPRPRPRPNPWPRP | 0.277
52 | RRIRPRPPRLPRPRPRPNQEPRP | 0.0875
53 | RRIRPRPPRLPRPRPRPNQLPRP | -0.258
54 | RRIRPRPPRLPRPRPRPNQTPRP | 0.106
55 | RRIRPRPPRLPRPRPRPNQVPRP | 0.0456
56 | RRIRPRPPRLPRPRPRPNRFPRP | -0.0502
57 | RRIRPRPPRLPRPRPRPNRTPRP | -0.0847
58 | RRIRPRPPRLPRPRPRPNTCPRP | -0.00653
59 | RRIRPRPPRLPRPRPRPNTGPRP | 0.881
60 | RRIRPRPPRLPRPRPRPNWCPRP | 0.0235
61 | RRIRPRPPRLPRPRPRPNWGPRP | -0.057
62 | RRIRPRPPRLPRPRPRPNYLPRP | -0.0996
63 | RRIRPRPPRLPRPRPRPNYSPRP | -0.39
64 | RRIRPRPPRLPRPRPRPNYVPRP | -0.352
65 | RRIRPRPPRLPRPRPRPPAQPRP | 0.57
66 | RRIRPRPPRLPRPRPRPPCQPRP | 0.268
67 | RRIRPRPPRLPRPRPRPPCWPRP | 0.468
68 | RRIRPRPPRLPRPRPRPPDFPRP | -0.256
69 | RRIRPRPPRLPRPRPRPPDKPRP | 0.266
70 | RRIRPRPPRLPRPRPRPPDLPRP | 0.366
71 | RRIRPRPPRLPRPRPRPPDMPRP | 0.507
72 | RRIRPRPPRLPRPRPRPPDNPRP | 0.246
73 | RRIRPRPPRLPRPRPRPPDVPRP | 0.274
74 | RRIRPRPPRLPRPRPRPPEVPRP | -0.0265
75 | RRIRPRPPRLPRPRPRPPFQPRP | 0.119

Row | Sequence | shrunken log2 fold change
76 | RRIRPRPPRLPRPRPRPPGIPRP | 0.151
77 | RRIRPRPPRLPRPRPRPPGTPRP | 0.317
78 | RRIRPRPPRLPRPRPRPPKIPRP | 0.0961
79 | RRIRPRPPRLPRPRPRPPKKPRP | 0.0716
80 | RRIRPRPPRLPRPRPRPPKWPRP | 0.469
81 | RRIRPRPPRLPRPRPRPPLRPRP | 0.336
82 | RRIRPRPPRLPRPRPRPPNCPRP | 0.215
83 | RRIRPRPPRLPRPRPRPPNGPRP | 0.593
84 | RRIRPRPPRLPRPRPRPPNIPRP | -0.414
85 | RRIRPRPPRLPRPRPRPPQVPRP | 0.368
86 | RRIRPRPPRLPRPRPRPPRDPRP | 0.521
87 | RRIRPRPPRLPRPRPRPPSPPRP | 0.439
88 | RRIRPRPPRLPRPRPRPPTMPRP | 0.223
89 | RRIRPRPPRLPRPRPRPPVCPRP | 0.409
90 | RRIRPRPPRLPRPRPRPPVQPRP | 0.341
91 | RRIRPRPPRLPRPRPRPPVSPRP | 0.0379
92 | RRIRPRPPRLPRPRPRPPWFPRP | 0.32
93 | RRIRPRPPRLPRPRPRPPYEPRP | -0.145
94 | RRIRPRPPRLPRPRPRPPYLPRP | -0.376
95 | RRIRPRPPRLPRPRPRPQCQPRP | 0.00656
96 | RRIRPRPPRLPRPRPRPQCRPRP | 0.00385
97 | RRIRPRPPRLPRPRPRPQDAPRP | 0.355
98 | RRIRPRPPRLPRPRPRPQDFPRP | -0.0957
99 | RRIRPRPPRLPRPRPRPQDIPRP | -0.0806
100 | RRIRPRPPRLPRPRPRPQGVPRP | 0.07

Row | Sequence | shrunken log2 fold change
101 | RRIRPRPPRLPRPRPRPQHQPRP | -0.226
102 | RRIRPRPPRLPRPRPRPQHSPRP | -0.161
103 | RRIRPRPPRLPRPRPRPQIAPRP | 0.115
104 | RRIRPRPPRLPRPRPRPQKMPRP | -0.201
105 | RRIRPRPPRLPRPRPRPQKYPRP | -0.257
106 | RRIRPRPPRLPRPRPRPQLLPRP | 0.271
107 | RRIRPRPPRLPRPRPRPQMIPRP | -0.594
108 | RRIRPRPPRLPRPRPRPQMQPRP | -0.254
109 | RRIRPRPPRLPRPRPRPQNEPRP | -0.183
110 | RRIRPRPPRLPRPRPRPQNGPRP | -0.281
111 | RRIRPRPPRLPRPRPRPQNLPRP | -0.0683
112 | RRIRPRPPRLPRPRPRPQNMPRP | -0.358
113 | RRIRPRPPRLPRPRPRPQQIPRP | -0.124
114 | RRIRPRPPRLPRPRPRPQRQPRP | 0.109
115 | RRIRPRPPRLPRPRPRPQSIPRP | -0.105
116 | RRIRPRPPRLPRPRPRPQSLPRP | -0.288
117 | RRIRPRPPRLPRPRPRPQTEPRP | 0.0275
118 | RRIRPRPPRLPRPRPRPQVSPRP | -0.00288
119 | RRIRPRPPRLPRPRPRPQWSPRP | -0.226
120 | RRIRPRPPRLPRPRPRPQWTPRP | -0.0535
121 | RRIRPRPPRLPRPRPRPQYEPRP | -0.583
122 | RRIRPRPPRLPRPRPRPRAGPRP | 0.626
123 | RRIRPRPPRLPRPRPRPRCWPRP | 0.689
124 | RRIRPRPPRLPRPRPRPRDRPRP | 0.18
125 | RRIRPRPPRLPRPRPRPRECPRP | 0.378

Row | Sequence | shrunken log2 fold change
126 | RRIRPRPPRLPRPRPRPRFMPRP | -0.0826
127 | RRIRPRPPRLPRPRPRPRFNPRP | -0.181
128 | RRIRPRPPRLPRPRPRPRFRPRP | 0.217
129 | RRIRPRPPRLPRPRPRPRGDPRP | 1.81
130 | RRIRPRPPRLPRPRPRPRHAPRP | 0.502
131 | RRIRPRPPRLPRPRPRPRHDPRP | 0.186
132 | RRIRPRPPRLPRPRPRPRKGPRP | 0.322
133 | RRIRPRPPRLPRPRPRPRKSPRP | 0.112
134 | RRIRPRPPRLPRPRPRPRLCPRP | 0.646
135 | RRIRPRPPRLPRPRPRPRLHPRP | 0.624
136 | RRIRPRPPRLPRPRPRPRLYPRP | 0.127
137 | RRIRPRPPRLPRPRPRPRMNPRP | 0.0159
138 | RRIRPRPPRLPRPRPRPRQCPRP | 0.126
139 | RRIRPRPPRLPRPRPRPRQVPRP | 0.474
140 | RRIRPRPPRLPRPRPRPRRRPRP | 0.41
141 | RRIRPRPPRLPRPRPRPRSRPRP | 0.386
142 | RRIRPRPPRLPRPRPRPRTLPRP | 0.0704
143 | RRIRPRPPRLPRPRPRPRWAPRP | 0.394
144 | RRIRPRPPRLPRPRPRPRWQPRP | 0.754
145 | RRIRPRPPRLPRPRPRPRWRPRP | 0.542
146 | RRIRPRPPRLPRPRPRPRWYPRP | -0.0594
147 | RRIRPRPPRLPRPRPRPRYDPRP | 0.0231
148 | RRIRPRPPRLPRPRPRPRYEPRP | -0.0954
149 | RRIRPRPPRLPRPRPRPRYRPRP | 0.0725
150 | RRIRPRPPRLPRPRPRPSAIPRP | -0.32
